Target: ALTO with a NanoBiT tag at its N-terminus (Merkel cell polyomavirus)
Experiment: split reporter (BiFC, NanoBiT); NanoBiT in live HEK293 cells, 50 ng LgBiT + 50 ng SmBiT plasmid, 20-24 hours after transfection, NanoGlo reagent, luminescence; an interaction counts when the reading is tenfold above the LgBiT construct with the SmBiT negative control

In the case of “STING-LgBiT (from UniProt Q86WV6 1-379) (natural protein)”, the luminescence against the LgBiT-tagged construct with the SmBiT negative control is reported as > 10 fold.

B1: LgBiT-TBK1 (enzyme)
chain: MQSTSNHLWLLSDILGQGATANVFRGRHKKTGDLFAIKVFNNISFLRPVDVQMREFEVLKKLNHKNIVKLFAIEEETTTRHKVLIMEFCPCGSLYTVLEEPSNAYGLPESEFLIVLRDVVGGMNHLRENGIVHRDIKPGNIMRVIGEDGQSVYKLTDFGAARELEDDEQFVSLYGTEEYLHPDMYERAVLRKDHQKKYGATVDLWSIGVTFYHAATGSLPFRPFEGPRRNKEVMYKIITGKPSGAISGVQKAENGPIDWSGDMPVSCSLSRGLQVLLTPVLANILEADQEKCWGFDQFFAETSDILHRMVIHVFSLQQMTAHKIYIHSYNTATIFHELVYKQTKIISSNQELIYEGRRLVLEPGRLAQHFPKTTEENPIFVVSREPLNTIGLIYEKISLPKVHPRYDLDGDASMAKAITGVVCYACRIASTLLLYQELMRKGIRWLIELIKDDYNETVHKKTEVVITLDFCIRNIEKTVKVYEKLMKINLEAAELGEISDIHTKLLRLSSSQGTIETSLQDIDSRLSPGGSLADAWAHQEGTHPKDRNVEKLQVLLNCMTEIYYQFKKDKAERRLAYNEEQIHKFDKQKLYYHATKAMTHFTDECVKKYEAFLNKSEEWIRKMLHLRKQLLSLTNQCFDIEEEVSKYQEYTNELQETLPQKMFTASSGIKHTMTPIYPSSNTLVEMTLGMKKLKEEMEGVVKELAENNHILERFGSLTMDGGLRNVDCL
With B1 the luminescence against the LgBiT-tagged construct with the SmBiT negative control was > 10 fold.

— publication PMC11285941
